Measurements reported in patent US20200308257A1.

Key:
Test in all cases: cell-based or functional assay
[1] = target: H3N2 circulating viruses (n=30) and vaccines strains (n=4)
[2] = target: all H3N2 and H1N1 circulating strains and vaccines strains (n=55 viruses)
[3] = target: H1N1 circulating viruses (n=18) and vaccines strains (n=3)

B1: VIS410 (antibody, V domains shown)
VH: QVQLLETGGGLVKPGQSLKLSCAASGFTFTSYAMHWVRQPPGKGLEWVAVVSYDGNYKYYADSVQGRFTISRDNSKNTLYLQMNSLRAEDTAVYYCAKDSRLRSLLYFEWLSQGYFNPWGQGTTLTVSS
VL: DIQMTQSPSSLSASVGDRVTITCRSSQSITFDYKNYLAWYQQKPGKAPKLLIYWGSYLESGVPSRFSGSGSGTDFTLTISSLQPEDFATYYCQQHYRTPPSFGQGTKVEIK
Mean IC50, phenotypic IC50 assay [1]: 1.3 µg/mL
Median IC50, phenotypic IC50 assay [2]: 0.9 µg/mL
Mean IC50, phenotypic IC50 assay [3]: 0.6 µg/mL
